Assay results as given in article PMC6389977.

Biological target: purified recombinant human GAPDH protein (human) (UniProt P04406)
Assay: SPR

purified recombinant human GAPDH protein (human), sequence (P04406 whole entry): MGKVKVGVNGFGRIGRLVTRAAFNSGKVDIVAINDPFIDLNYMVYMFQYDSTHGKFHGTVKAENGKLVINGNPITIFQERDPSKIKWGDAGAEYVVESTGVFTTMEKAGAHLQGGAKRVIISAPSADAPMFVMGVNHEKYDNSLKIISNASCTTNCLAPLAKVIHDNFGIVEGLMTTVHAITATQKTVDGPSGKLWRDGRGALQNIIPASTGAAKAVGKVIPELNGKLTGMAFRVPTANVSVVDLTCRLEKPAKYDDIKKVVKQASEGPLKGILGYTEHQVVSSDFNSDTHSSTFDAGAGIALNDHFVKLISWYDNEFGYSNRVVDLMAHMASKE
DENV2 NS3 protease domain (domain or fragment), sequence (P14340 1476-1660 limits assumed): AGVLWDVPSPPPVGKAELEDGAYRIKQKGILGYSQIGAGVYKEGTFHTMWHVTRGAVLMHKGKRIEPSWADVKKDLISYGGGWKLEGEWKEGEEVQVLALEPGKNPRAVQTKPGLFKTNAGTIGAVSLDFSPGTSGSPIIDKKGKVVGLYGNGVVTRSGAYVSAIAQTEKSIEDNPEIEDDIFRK
DENV2 NS3 helicase domain (domain or fragment), sequence (P14340 1644-2093 limits assumed): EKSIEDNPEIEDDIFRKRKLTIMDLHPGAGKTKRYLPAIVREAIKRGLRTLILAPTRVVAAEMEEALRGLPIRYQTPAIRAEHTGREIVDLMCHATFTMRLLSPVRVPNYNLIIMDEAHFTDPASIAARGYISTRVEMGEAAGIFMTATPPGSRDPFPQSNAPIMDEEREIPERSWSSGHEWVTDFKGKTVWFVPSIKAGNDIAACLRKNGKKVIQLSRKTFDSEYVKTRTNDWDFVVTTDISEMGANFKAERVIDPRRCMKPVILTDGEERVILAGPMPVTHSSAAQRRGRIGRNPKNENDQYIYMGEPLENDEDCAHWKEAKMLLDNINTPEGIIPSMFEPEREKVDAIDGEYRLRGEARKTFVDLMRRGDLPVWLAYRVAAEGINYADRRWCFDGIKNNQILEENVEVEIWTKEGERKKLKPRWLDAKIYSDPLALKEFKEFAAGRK

Substance | Kd [nM]
DENV2 NS3 protease domain (domain or fragment) | 2400
DENV2 NS3 helicase domain (domain or fragment) | 2500
